The assay concerns the target A/Perth/16/2009 H3 trimer (biotinylated, for BLI) (Influenza A virus A/Perth/16/2009 (H3N2), strain, biotin on the avi tag (BirA)). Description: BLI. To be noted: both partners purified.

B1: 09–1B12 Fab (mature; Lys-C digest of recombinant IgG, used for BLI) (Fab, V domains shown)
VH: QVQLVQSAPEVKRPGASVRLSCKASGYTFNTYGIIWVRQAPGQGLEWMGWISAYTGNTNYAQKVQGRVTMTTDITTSTAYLELRGLRSDDTAVYYCARGLLQGAVILDSYHYALDFWGQGTTVTVSS
VL: EIVLTQSPGTLSLSPGERATLSCRASQSVTNRFIAWYQHKPGQSPRLLIYGASSRATGIPDRFSGRGSGTDFTLTISRLEPEDFAVYYCQQYDTSPRWTFGQGTKLEIK
For B1, the binding result is listed as “binds”.

For the origin of these results see article PMC11096021 (Immunity, 2024).
